Legend:
MS2CP (MS2 coat protein) [1] = molecular target: T1, MS2CP (MS2 coat protein) (bacteriophage MS2, UniProt P03612 2-130); test: EMSA; 6 mM Mg2+, 2 mM spermidine; EMSA, 1 uM RNA, 4 C 30 min, 12% native PAGE at 4 C; 1x from 5x buffer: U1A 20 mM HEPES pH 7.5, 80 mM KCl, 20 mM NaCl, 2 mM DTT; MS2CP 40 mM HEPES pH 7.5, 10 mM; conditions: protein: recombinant; tags: His; chain copies: 2; two hairpins
MS2CP (MS2 coat protein) [2] = molecular target: T1, MS2CP (MS2 coat protein); test: EMSA; 6 mM Mg2+, 2 mM spermidine; affinity similar to native U; EMSA, 1 uM RNA, 4 C 30 min, 12% native PAGE at 4 C; 1x from 5x buffer: U1A 20 mM HEPES pH 7.5, 80 mM KCl, 20 mM NaCl, 2 mM DTT; MS2CP 40 mM HEPES pH 7.5, 10 mM; conditions: protein: recombinant; tags: His; chain copies: 2; two hairpins

T1 sequence (P03612 2-130): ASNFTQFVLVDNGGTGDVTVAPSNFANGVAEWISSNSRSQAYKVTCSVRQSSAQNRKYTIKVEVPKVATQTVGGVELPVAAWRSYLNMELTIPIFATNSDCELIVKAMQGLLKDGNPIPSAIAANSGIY

B1: 2x MS2 aptamer, native U (structured_RNA)
RNA: GGGAGCAGGUGAGGAUCACCCAUCUGCCACGAGCGAGGUGAGGAUCACCCAUCUCGCUCGUGUUCCC
B1: binds (MS2CP (MS2 coat protein) [1]).

B2: 2x MS2 aptamer, m1Ψ (structured_RNA)
RNA: GGGAGCAGGUGAGGAUCACCCAUCUGCCACGAGCGAGGUGAGGAUCACCCAUCUCGCUCGUGUUCCC
modifications: all U replaced by N1-methylpseudouridine
B2: binds (MS2CP (MS2 coat protein) [2]).

Reference: paper PMC7102939, “N 1-Methylpseudouridine substitution enhances the performance of synthetic mRNA switches in cells”
